FRETR data for one molecule are collected here from publication PMC1952217 (The EMBO Journal, 2007).

Experiment in all cases: FRET or BRET
(BRET reads energy transfer from a luciferase to a nearby fluorophore.)

The target of assay [1] is T1, Smc1 tagged at its C-terminus with CFP or YFP (S. cerevisiae, UniProt P32908 1-1225).
T1 sequence: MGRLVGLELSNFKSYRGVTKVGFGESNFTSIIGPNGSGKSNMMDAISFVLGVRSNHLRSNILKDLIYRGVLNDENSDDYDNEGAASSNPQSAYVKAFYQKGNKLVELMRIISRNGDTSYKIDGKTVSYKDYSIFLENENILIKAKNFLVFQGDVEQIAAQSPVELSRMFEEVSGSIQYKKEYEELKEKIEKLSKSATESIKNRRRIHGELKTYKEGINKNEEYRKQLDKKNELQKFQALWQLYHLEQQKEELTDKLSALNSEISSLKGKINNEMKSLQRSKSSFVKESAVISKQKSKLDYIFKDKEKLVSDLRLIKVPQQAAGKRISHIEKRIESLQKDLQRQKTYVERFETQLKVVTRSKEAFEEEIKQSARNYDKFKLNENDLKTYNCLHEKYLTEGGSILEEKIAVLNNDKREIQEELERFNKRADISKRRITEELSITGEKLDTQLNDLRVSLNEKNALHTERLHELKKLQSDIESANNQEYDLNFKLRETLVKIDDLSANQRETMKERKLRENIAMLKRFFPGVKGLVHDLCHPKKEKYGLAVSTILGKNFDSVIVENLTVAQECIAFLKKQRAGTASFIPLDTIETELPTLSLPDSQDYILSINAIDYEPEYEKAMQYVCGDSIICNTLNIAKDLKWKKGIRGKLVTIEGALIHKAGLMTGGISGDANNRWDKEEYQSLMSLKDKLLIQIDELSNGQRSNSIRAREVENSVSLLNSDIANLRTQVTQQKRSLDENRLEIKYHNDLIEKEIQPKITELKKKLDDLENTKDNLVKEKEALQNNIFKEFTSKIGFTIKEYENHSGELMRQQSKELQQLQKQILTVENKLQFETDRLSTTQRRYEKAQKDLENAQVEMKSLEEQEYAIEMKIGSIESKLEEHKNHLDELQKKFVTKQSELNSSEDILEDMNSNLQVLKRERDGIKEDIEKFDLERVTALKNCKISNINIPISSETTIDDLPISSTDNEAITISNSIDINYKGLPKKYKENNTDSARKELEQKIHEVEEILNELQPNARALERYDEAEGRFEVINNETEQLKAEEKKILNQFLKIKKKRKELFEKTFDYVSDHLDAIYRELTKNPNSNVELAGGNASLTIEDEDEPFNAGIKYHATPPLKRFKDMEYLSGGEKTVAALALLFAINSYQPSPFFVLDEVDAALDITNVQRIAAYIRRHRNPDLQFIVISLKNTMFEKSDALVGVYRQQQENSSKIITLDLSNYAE

Assay [2] concerns the target T2, Scc1 with CFP or YFP at its C-terminus (S. cerevisiae, UniProt Q12158 1-566).
T2 sequence: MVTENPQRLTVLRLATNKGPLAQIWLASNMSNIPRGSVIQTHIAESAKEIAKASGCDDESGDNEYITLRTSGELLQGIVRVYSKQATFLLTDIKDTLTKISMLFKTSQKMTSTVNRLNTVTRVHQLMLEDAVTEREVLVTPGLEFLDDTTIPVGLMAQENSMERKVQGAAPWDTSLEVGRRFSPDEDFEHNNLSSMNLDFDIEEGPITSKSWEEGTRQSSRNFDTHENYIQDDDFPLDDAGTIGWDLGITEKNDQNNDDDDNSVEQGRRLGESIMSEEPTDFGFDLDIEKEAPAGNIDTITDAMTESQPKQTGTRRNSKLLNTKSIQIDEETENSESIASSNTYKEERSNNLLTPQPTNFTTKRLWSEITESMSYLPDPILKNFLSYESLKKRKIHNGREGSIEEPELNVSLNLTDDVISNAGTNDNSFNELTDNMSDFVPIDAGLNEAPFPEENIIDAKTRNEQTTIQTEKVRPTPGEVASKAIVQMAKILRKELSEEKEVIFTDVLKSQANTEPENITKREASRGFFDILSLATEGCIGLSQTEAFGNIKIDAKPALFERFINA

For assay [3], the target named is T3, Smc3 tagged at its C-terminus with CFP or YFP (S. cerevisiae, UniProt P47037 1-1230).
T3 sequence: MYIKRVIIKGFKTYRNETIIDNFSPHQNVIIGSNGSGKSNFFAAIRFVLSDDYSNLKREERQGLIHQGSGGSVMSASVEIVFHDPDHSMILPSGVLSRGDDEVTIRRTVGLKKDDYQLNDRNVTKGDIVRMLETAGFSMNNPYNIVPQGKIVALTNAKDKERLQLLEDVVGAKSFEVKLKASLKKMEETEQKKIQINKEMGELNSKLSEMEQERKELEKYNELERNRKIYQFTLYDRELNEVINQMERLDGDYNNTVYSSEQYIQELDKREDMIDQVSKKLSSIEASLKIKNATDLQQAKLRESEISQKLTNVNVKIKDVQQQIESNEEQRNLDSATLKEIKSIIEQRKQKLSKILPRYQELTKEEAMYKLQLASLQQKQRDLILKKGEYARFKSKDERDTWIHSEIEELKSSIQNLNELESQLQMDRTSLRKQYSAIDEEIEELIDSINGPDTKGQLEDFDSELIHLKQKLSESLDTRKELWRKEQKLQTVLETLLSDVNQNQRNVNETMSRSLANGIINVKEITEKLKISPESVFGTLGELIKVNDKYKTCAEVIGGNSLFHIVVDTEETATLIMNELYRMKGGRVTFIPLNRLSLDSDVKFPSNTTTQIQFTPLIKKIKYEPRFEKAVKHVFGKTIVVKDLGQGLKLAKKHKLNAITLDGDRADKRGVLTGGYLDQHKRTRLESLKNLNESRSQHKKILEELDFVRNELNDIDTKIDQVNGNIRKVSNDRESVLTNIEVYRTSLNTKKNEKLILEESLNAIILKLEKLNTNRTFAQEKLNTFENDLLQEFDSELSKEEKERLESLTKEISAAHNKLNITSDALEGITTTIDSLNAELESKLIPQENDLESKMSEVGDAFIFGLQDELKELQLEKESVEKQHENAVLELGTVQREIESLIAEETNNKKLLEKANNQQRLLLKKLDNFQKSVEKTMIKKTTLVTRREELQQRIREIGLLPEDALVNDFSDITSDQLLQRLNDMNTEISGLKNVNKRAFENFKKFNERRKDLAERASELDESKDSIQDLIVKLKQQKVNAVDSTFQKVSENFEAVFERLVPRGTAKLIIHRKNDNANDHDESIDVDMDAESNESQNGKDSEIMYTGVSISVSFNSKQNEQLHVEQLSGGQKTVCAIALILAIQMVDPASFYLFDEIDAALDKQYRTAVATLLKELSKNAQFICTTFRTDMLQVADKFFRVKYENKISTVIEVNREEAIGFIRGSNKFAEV

B1: Scc3 with CFP or YFP at its C-terminus (natural protein)
chain: MTAVRRSTRIRTKSQVIEEDYDDEQNTSAQHVESDKITAKTQHEEEEEQDTGESEESSSEDDYEDQDDDDYVDTATAKRKSRKRKPKSASNTSSKRQKKKPTSAQKSAVSHAPAYHRSKKDQDQYLEIAKDFQPTELFDILSTSEDVSIEELLREWLETYSENRDKFLQEFINLLLNCCGSVARVEDHDVHSNESSNETIGEIQLLFQRQKLHEFYLLISKENKKRKNFKMGPLYQNFAEFMTKLLEVANDLQLLYVESDEDDTQIVTGNLVLDLLTWLSSFSVCKIRCFRYISTLTLYLFQDYLTQQAVNLEKNYLAKLSKQLSLEEKKKRPNNKTLEKLESTIAETQGSKVVIDSIIDNIVKLCFVHRYKDVSDLIRSESMLHLSIWIKNYPEYFLKVTFLKYFGWLLSDNSVSVRLQVTKILPHLIIQNHNSKSTDNSAIRQVFERFKTKILEVAIRDVNLDVRIHSIQVLTEASSLGYLDDSEILIISSLMFDEEFDPFKTSSFNKRSKFLSTVAKFLARVIKEKFDEFIKTHEDLPKEVDGLEVGPVVQVGIFIKILNDSLIYHLKDCAEVDSRTKIRMLTQAAEFLSPYISTHLKTICNLLISDTESNELIQKLQNSANNNSDDEDVDDEELDITPLFPIDRNSTILYLNVFHGLCAGANNPKIQTKDSVKEIVLPLFYDLLNAASIESADILCPLLESFITFSLDDWISIGYETELKKITDKTIKAFMDSTIGNSKVDMKYDIFAKFIHHIHHFEKKELQEKFLNQIATLKIHLKKFLQEKMDPNNSRDDYKDLTCSLYELYINKLTILGRDYPIEVDEELLQLFLNNFVSRIPIMFQDFDDSTAQEINFKMLVLLATWNLEKWREIIEKVRDYENSISKDLRSVWKPIAAIIGRLNTLVISLAATNETFENINSLFYLKWSACTSLMDIIVAIKIFELKLPADATTWRYSMSEQFPFYLHDNASKVLLKIFLYLESLFAKQVDVQLERVADEDANLNDLPETGFFENIETEFLLFTVKLKGLMKLNILDERFASRVALNKEKLGPLFKKIVDDTIMENPEPNKKNIQKAKSNQTQREKAPLQPNSERETDHANTENNDPDIPMTIDLEPIEESSQNNSELAPIEEHPTVVDAIDNSDEITQD
B1: the results for the FRETR in assay [1], in assay [2] and in assay [3] were 1.35, 1.4 and 1.37, respectively.
